Measurements as given in article PMC6318259, “Distinct Stabilities of the Structurally Homologous Heptameric Co-Chaperonins GroES and gp31” (Journal of the American Society for Mass Spectrometry, 2018).

Target: the molecule itself
Assay: native MS; 10 μM monomer in 10 mM aqueous ammonium acetate, pH 6.8; nano-electrospray, modified Orbitrap (Exactive Plus / Q-Exactive EMR); oligomeric state of the protein with itself

Protein	stoichiometry N
GroES (natural protein, Escherichia coli, GroES, co-chaperonin of Escherichia coli; homo-heptamer of 10.4 kDa subunits; The printed subunit mass of 10.4 kDa fits the whole protein; also called GroES heptamer; co-chaperonin GroES; source: over-expressed in E. coli strain MC1009, purified as described previously) MNIRPLHDRVIVKRKEVETKSAGGIVLTGSAAAKSTRGEVLAVGNGRILENGEVKPLDVKVGDIVIFNDGYGVKSEKIDNEEVLIMSESDILAIVEA	7
gp31 (natural protein, bacteriophage T4, gp31, co-chaperonin encoded by bacteriophage T4, structural homologue of GroES; heptamer of identical 12 kDa subunits; The printed subunit mass of 12 kDa fits the whole protein; also called gp31 heptamer; source: over-expressed in E. coli strain MC1009, purified as described previously) MSEVQQLPIRAVGEYVILVSEPAQAGDEEVTESGLIIGKRVQGEVPELCVVHSVGPDVPEGFCEVGDLTSLPVGQIRNVPHPFVALGLKQPKEIKQKFVTCHYKAIPCLYK	7
